Assay results as given in patent US20060153851A1.
“And” between values parts separate entries of the source, which are not always exact repeats. Equal values may be shown once.

Target: each PDZ domain-containing protein (GST-DLG1, GST-NeDLG, and GST-PSD95 fusion proteins of FIG. 9B)
Assay: 30 µM biotinylated peptide on plate-bound GST-PDZ fusions, streptavidin-HRP (FIG. 9B)

B1: biotinylated synthetic peptide corresponding to the C-terminal 20 amino acids of CLASP-2 (peptide)
peptide: VLHHHQNPEFYDEIKIELPTQLHEKHHLLLTFFHVSCDNSSKGSTKKRDVVETQVGYSWLPLLKDGRVVTSEQHIPVSANLPSGYLGYQELGMGRHYGPEIKWVDGGKPLLKISTHLVSTVYTQDQHLHNFFQYCQKTESGAQALGNELVKYLKSLHAMEGHVMIAFLPTILNQLFRVLTRATQEEVAVNVTRVIIHVVAQCHEEGLESHLRSYVKYAYKAEPYVASEYKTVHEELTKSMTTILKPSADFLTSNKLLRYSWFFFDVLIKSMAQHLIENSKVKLLRNQRFPASYHHAAETVVNMLMPHITQKFGDNPEASKNANHSLAVFIKRCFTFMDRGFVFKQINNYISCFAPGDPKTLFEYKFEFLRVVCNHEHYIPLNLPMPFGKGRIQRYQDLQLDYSLTDEFCRNHFLVGLLLREVGTALQEFREVRLIAISVLKNLLIKHSFDDRYASRSHQARIATLYLPLFGLLIENVQRINVRDVSPFPVNAGMTVKDESLALPAVNPLVTPQKGSTLDNSLHKDLLGAISGIASPYTTSTPNINSVRNADSRGSLISTDSGNSLPERNSEKSNSLDKHQQSSTLGNSVVRCDKLDQSEIKSLLMCFLYILKSMSDDALFTYWNKASTSELMDFFTISEVCLHQFQYMGKRYIARNQEGLGPIVHDRKSQTLPVSRNRTGMMHARLQQLGSLDNSLTFNHSYGHSDADVLHQSLLEANIATEVCLTALDTLSLFTLAFKNQLLADHGHNPLMKKVFDVYLCFLQKHQSETALKNVFTALRSLIYKFPSTFYEGRADMCAALCYEILKCCNSKLSSIRTEASQLLYFLMRNNFDYTGKKSFVRTHLQVIISVSQLIADVVGIGETRFQQSLSIINNCANSDRLIKHTSFSSDVKDLTKRIRTVLMATAQMKEHENDPEMLVDLQYSLAKSYASTPELRKTWLDSMARIHVKNGDLSEAAMCYVHVTALVAEYLTRKGVFRQGCTAFRVITPNIDEEASMMEDVGMQDVHFNEDVLMELLEQCADGLWKAERYELIADIYKLIIPIYEKRRDFFEDEDGKEYIYKEPKLTPLSEISQRLLKLYSDKFGSENVKMIQDSGKVNPKDLDSKYAYIQVTHVIPFFDEKELQERKTEFERSHNIRRFMFEMPFTQTGKRQGGVEEQCKRRTILTAIHCFPYVKKRIPVMYQHHTDLNPIEVAIDEMSKKVAELRQLCSSAEVDMIKLQLKLQGSVSVQVNAGPLAYARAFLDDTNTKRYPDNKVKLLKEVFRQFVEACGQALAVNERLIKEDQLEYQEEMKANYREMAKELSEIMHEQICPLEEKTSVLPNSLHIFNAISGTPTSTMVHGMTSSSSVV
modifications: biotin at the amino-terminus
- OD units at 30 µM peptide: 0.4 OD units and 1 OD units
